From PMC4663176 (Insect biochemistry and molecular biology, 2015) come the findings set out here.

Where two headings read alike, the source gives them in different places.

In series [1] the target is T1, Arylalkylamine N-acyltransferase like 2 (AANATL2) (Drosophila melanogaster, UniProt Q9VMG0).
T1 sequence (Q9VMG0 1-216): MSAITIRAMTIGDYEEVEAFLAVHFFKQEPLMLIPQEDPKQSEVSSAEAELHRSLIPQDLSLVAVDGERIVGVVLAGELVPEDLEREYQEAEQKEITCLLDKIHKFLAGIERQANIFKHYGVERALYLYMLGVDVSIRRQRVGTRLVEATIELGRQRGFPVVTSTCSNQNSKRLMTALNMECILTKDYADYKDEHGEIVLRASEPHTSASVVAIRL
As to the kind of experiment: dead-end inhibition kinetics, DTNB assay of CoA release, purified enzyme. Format: biochemical.

Series [2] deals with T1, Arylalkylamine N-acyltransferase like 2 (AANATL2). Described as above. It is filed as biochemical. The source holds these as a separate data set.
Substrate in series [3]: CC(=O)SCCNC(=O)CCNC(=O)[C@H](O)C(C)(C)COP(=O)(O)OP(=O)(O)OC[C@H]1O[C@@H](n2cnc3c(N)ncnc32)[C@H](O)[C@@H]1OP(=O)(O)O
As to the kind of experiment: purified protein. To be noted: acetyl-CoA binds first in an ordered sequential mechanism.

Substrate in series [4]: NCCc1cccc(C(F)(F)F)c1
The series can be described thus: purified protein. To be noted: acetyl-CoA; pH 8.0.

Substrate in series [5]: COc1ccc(CCN)cc1
As to the kind of experiment: steady-state kinetics. Format: biochemical, Drosophila melanogaster. To be noted: acetyl-CoA; pH 8.0.

Substrate in series [6]: NCCc1c[nH]c2ccccc12
The series can be described thus: steady-state kinetics. Format: biochemical, Drosophila melanogaster. The settings on record: acetyl-CoA; pH 8.0.

Substrate in series [7]: CC(CN)c1ccccc1
As to the kind of experiment: steady-state kinetics. It is filed as biochemical, Drosophila melanogaster. To be noted: acetyl-CoA; pH 8.0.

Substrate in series [8]: NCCc1c[nH]c2ccc(OCc3ccccc3)cc12
As to the kind of experiment: steady-state kinetics. To be noted: acetyl-CoA; pH 8.0. Format: biochemical, Drosophila melanogaster.

Substrate in series [9]: NCCCCc1ccccc1
As to the kind of experiment: steady-state kinetics. It is filed as biochemical, Drosophila melanogaster. To be noted: acetyl-CoA; pH 8.0.

In general, Ki refers to a measure of affinity in units of concentration, obtained from inhibition or displacement. A higher Ki goes with lower affinity. In [1], `OCCc1ccc(O)cc1` [tyrosol] had an inhibition constant (Ki) of 52 ± 9 µM.
In series [2], `CCCCCCCC/C=C\CCCCCCCC(=O)SCCNC(=O)CCNC(=O)[C@H](O)C(C)(C)COP(=O)(O)OP(=O)(O)OC[C@H]1O[C@@H](n2cnc3c(N)ncnc32)[C@H](O)[C@@H]1OP(=O)(O)O` [oleoyl-CoA] came in with a Ki of 0.18 ± 0.03 µM.

B1: Arylalkylamine N-acyltransferase like 2 (AANATL2) (Drosophila melanogaster) (protein)
chain: T1 sequence (Q9VMG0 1-216)
A word on the Km: it is the substrate concentration at which the rate is half of its maximum. A word on the kcat: it is the number of substrate molecules converted per active site and unit of time at saturation. As a reminder, the kcat/Km is the turnover number divided by the Michaelis constant. For B1, the Michaelis constant (Km) in the series “purified protein [3]” came out at 5 ± 1 µM; in “purified protein [4]” it was 10 ± 2 µM; in the series “steady-state kinetics [5]” it was 10 ± 2 µM; in the series “steady-state kinetics [6]”, 14 ± 3 µM; in the series “steady-state kinetics [7]”, 9 ± 1 µM; in “steady-state kinetics [8]” it was 8 ± 1 µM. The Km in “steady-state kinetics [9]” stood at 9.5 ± 0.4 µM. Further, the kcat in “purified protein [3]” came out at 1.6 s⁻¹; in the series “purified protein [4]” it was 4.5 ± 0.2 s⁻¹; in the series “steady-state kinetics [5]” it was 3.7 ± 0.1 s⁻¹; in “steady-state kinetics [6]”, 4.3 ± 0.3 s⁻¹; in “steady-state kinetics [7]”, 2.9 ± 0.1 s⁻¹; in the series “steady-state kinetics [8]” it was 2.8 ± 0.1 s⁻¹. Further, the kcat in “steady-state kinetics [9]” amounted to 1 ± 0.02 s⁻¹. Besides, the catalytic efficiency (kcat/Km) is 310000 M⁻¹ s⁻¹ in the series “purified protein [3]”; 440000 ± 70000 M⁻¹ s⁻¹ in the series “purified protein [4]”; 370000 ± 60000 M⁻¹ s⁻¹ in the series “steady-state kinetics [5]”; 310000 ± 60000 M⁻¹ s⁻¹ in “steady-state kinetics [6]”; 320000 ± 40000 M⁻¹ s⁻¹ in the series “steady-state kinetics [7]”; 330000 ± 40000 M⁻¹ s⁻¹ in the series “steady-state kinetics [8]”. Also, the kcat/Km in “steady-state kinetics [9]” was 110000 ± 5000 M⁻¹ s⁻¹.
